Measurements taken from patent publication US20210388084A1 (JJP BIOLOGICS SP Z O O, published 2021).

T1: chimeric human/cynomolgus monkey CD89-III (human/cynomolgus monkey chimera, UniProt P24071 22-287)
T1 construct: also called ΔGly72-Gly96 human EC1-CD89; III (72-96)
T1 chain: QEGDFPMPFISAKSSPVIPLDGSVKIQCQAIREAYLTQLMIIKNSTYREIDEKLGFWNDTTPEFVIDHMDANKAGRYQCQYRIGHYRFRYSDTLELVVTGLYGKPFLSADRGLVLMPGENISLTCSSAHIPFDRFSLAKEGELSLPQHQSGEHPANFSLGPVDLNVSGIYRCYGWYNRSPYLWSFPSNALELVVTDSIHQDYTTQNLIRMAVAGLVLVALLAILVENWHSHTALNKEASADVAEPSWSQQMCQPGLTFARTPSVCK

T2: chimeric human/cynomolgus monkey CD89-hotspots (human/cynomolgus monkey chimera, UniProt P24071 22-287)
T2 construct: also called ΔThr58, Gln59; ΔArg73, Arg74, Lys76
T2 chain: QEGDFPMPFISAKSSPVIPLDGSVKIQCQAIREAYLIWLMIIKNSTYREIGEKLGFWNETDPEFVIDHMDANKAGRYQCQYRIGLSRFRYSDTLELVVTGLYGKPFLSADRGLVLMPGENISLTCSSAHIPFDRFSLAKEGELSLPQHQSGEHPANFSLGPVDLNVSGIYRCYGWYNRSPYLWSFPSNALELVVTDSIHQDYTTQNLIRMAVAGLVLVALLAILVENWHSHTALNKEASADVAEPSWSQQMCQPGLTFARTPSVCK

T3: chimeric human/cynomolgus monkey CD89-II (human/cynomolgus monkey chimera, UniProt P24071 22-287)
T3 construct: also called ΔIle47-Ile71 human EC1-CD89; II (47-71)
T3 chain: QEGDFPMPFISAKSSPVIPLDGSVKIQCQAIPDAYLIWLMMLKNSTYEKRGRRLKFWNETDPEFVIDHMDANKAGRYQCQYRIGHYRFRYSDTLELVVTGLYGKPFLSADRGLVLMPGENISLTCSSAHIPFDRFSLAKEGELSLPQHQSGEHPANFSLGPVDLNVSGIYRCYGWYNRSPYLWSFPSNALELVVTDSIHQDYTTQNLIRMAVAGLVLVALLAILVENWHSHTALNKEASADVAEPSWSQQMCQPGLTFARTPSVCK

T4: membrane full-length bovine Fcγ2R (bovine)
T4 chain: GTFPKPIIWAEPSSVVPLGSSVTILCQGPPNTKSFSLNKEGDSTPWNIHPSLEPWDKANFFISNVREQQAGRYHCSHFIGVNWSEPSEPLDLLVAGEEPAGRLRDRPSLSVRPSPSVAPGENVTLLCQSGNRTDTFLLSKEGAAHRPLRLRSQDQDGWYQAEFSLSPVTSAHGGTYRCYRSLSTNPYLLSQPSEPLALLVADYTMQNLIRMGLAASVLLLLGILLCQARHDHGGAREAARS


Experiments:
[1] = target: T1, chimeric human/cynomolgus monkey …; test: FACS, transiently transfected HEK293F; - = no binding
Description: (§1) After 48 hours, the binding of CD89/IgA blocking mouse anti-human CD89 antibodies to aforementioned chimeric human CD89/cynomolgus monkey CD89 constructs on transfected cells was analyzed by FACS analysis. To this end, transient transfected HEK293F cells were put at 10×10⁶ cells/mL in ice-chilled phosphate-buffered saline containing 0.1% BSA (Sigma)/0.05% NaN₃ (PBS/BSA/NaN₃) supplemented with 50 μg/mL human IgGs (blocking Fcγ receptors; Sigma) for 10 minutes at 4° C. Then, 10 μL/tube (ie, 0.1×10⁶ cells) of these cells were incubated with or without 100 μL purified mouse anti-human CD89 antibody at 10 μg/mL (in PBS/BSA/NaN₃) for 30 minutes at 4° C. […] After extensive washing in PBS/BSA/NaN₃, cells were subsequently incubated with 1:200 diluted PE-conjugated goat anti-mouse IgG Fey-specific antibodies (Jackson ImmunoResearch) for 30 minutes at 4° C. After extensive washing in PBS/BSA/NaN₃, cells were fixed in 2% formaldehyde in PBS/BSA/NaN₃ for 30 minutes at 4° C.

[2] = target: T2, chimeric human/cynomolgus monkey …; test: as above
Description: as §1

[3] = target: T3, chimeric human/cynomolgus monkey CD89-II; test: FACS, transiently transfected HEK293F, 10 ug/mL; ++ strong, + intermediate, -/+ weak
Description: as §1

[4] = target: T5, membrane-bound full-length human CD89 (human, UniProt P24071 22-287); test: FACS, HEK293F-huCD89, 4C +NaN3, IgA then Ab 10 ug/mL; pre-bound heat-aggr serum IgA
T5 construct: on stably or transiently transfected HEK293F cells; also called FcalphaRI; huCD89
Description: After extensive washing in PBS/BSA/NaN₃, 1:200 diluted PE-conjugated streptavidin (Jackson ImmunoResearch) was added, and incubated for 30 minutes at 4° C. After extensive washing in PBS/BSA/NaN₃, cells were fixed in 2% formaldehyde in PBS/BSA/NaN₃ for 30 minutes at 4° C.

[5] = target: T3, chimeric human/cynomolgus monkey CD89-II; test: FACS, transiently transfected HEK293F; - = no binding
Description: as §1

[6] = target: T1, chimeric human/cynomolgus monkey …; test: FACS, transiently transfected HEK293F, 10 ug/mL; ++ strong, + intermediate, -/+ weak
Description: as §1

[7] = target: T2, chimeric human/cynomolgus monkey …; test: as above
Description: as §1

[8] = target: T5, membrane-bound full-length human CD89; test: FACS, HEK293F-huCD89, 4C +NaN3, IgA then Ab 10 ug/mL; pre-bound non-aggr serum IgA
Description: After this (ie, without washing), 50 μL purified mouse anti-human CD89 antibody at 20 μg/mL (in PBS/BSA/NaN₃) was added to these cells, and incubated for another 30 minutes at 4° C. […] After extensive washing in PBS/BSA/NaN₃, 1:200 diluted PE-conjugated streptavidin (Jackson ImmunoResearch) was added, and incubated for 30 minutes at 4° C. After extensive washing in PBS/BSA/NaN₃, cells were fixed in 2% formaldehyde in PBS/BSA/NaN₃ for 30 minutes at 4° C.

[9] = target: T4, membrane full-length bovine Fcγ2R; test: FACS, transiently transfected HEK293F
Description: (§2) After 48 hours and/or 72 hours, the binding of CD89/IgA blocking mouse anti-human CD89 antibodies to aforementioned chimeric human/bovine receptors on transfected cells was analyzed by FACS analysis. To this end, transient transfected HEK293F cells were put at 10×10⁶ cells/mL in ice-chilled phosphate-buffered saline containing 0.1% BSA (Sigma)/0.05% NaN₃ (PBS/BSA/NaN₃) supplemented with 50 μg/mL human IgGs (blocking Fcγ receptors; Sigma) for 10 minutes at 4° C. Then, 10 μL/tube (ie, 0.1×10⁶ cells) of these cells were incubated with or without 100 μL purified mouse anti-human CD89 antibody at 10 μg/mL (in PBS/BSA/NaN₃) for 30 minutes at 4° C. […] After extensive washing in PBS/BSA/NaN₃, cells were subsequently incubated with 1:200 diluted PE-conjugated goat anti-mouse IgG Fey-specific antibodies (Jackson ImmunoResearch) for 30 minutes at 4° C. After extensive washing in PBS/BSA/NaN₃, cells were fixed in 2% formaldehyde in PBS/BSA/NaN₃ for 30 minutes at 4° C.

[10] = target: T6, chimeric human EC1-CD89/bovine EC2-Fcγ2R (bovine TM & bovine IC) (human/bovine chimera); test: FACS, transiently transfected HEK293F, 10 ug/mL
T6 construct: also called human EC1-CD89 (version with bovine transmembrane-intracellular region)
Description: as §2

[11] = target: T7, chimeric human EC1-CD89/bovine EC2-Fcγ2R (human TM & human IC) (human/bovine chimera); test: FACS, transiently transfected HEK293F, 10 ug/mL
T7 construct: also called human EC1-CD89 (version with human transmembrane-intracellular region)
Description: as §2

Binder | binding result [1] | binding result [2] | binding result [3] | percent IgA binding [4] [%] | binding result [5] | binding result [6] | binding result [7] | percent IgA binding [8] [%] | binding result [9] | binding result [10] | binding result [11]
mouse anti-human CD89-specific antibody 8F3 (antibody, mouse IgG1, V domains shown) VH: EVQLVESGGGLVKPGGSLKLSCAASGFTFSNYGMSWVRQTPDKRLEWVATMHSGGTYTYYPDNVKGRFTISRDNAKNNLYLQMSSLRSEDTAMYYCARETGLYDGLFDFWGQGTTLTVSS VL: DVQITQSPSYLAASPGETITINCRASKTISKYLAWYQEKPGKTNMLLIYSGSTLQSGVPSRFSGSGSGTDFTLTISSLEPEDLAMYYCQQHDEYPWTFGGGTKLEIK | no binding (tested: 10 µg/mL) | no binding (tested: 10 µg/mL) | binds | – | – | – | – | – | – | – | –
mouse anti-human CD89-specific antibody 20B4 (antibody, mouse IgG1, V domains shown) VH: QVQLKESGPGLVAPSQSLSITCTVSGFSLTSYGVHWVRQPPGKGLEWLGIIWAGGSTSYNSALMSRLSISKDNSKSQVFLKMNSLQTDDTAMYYCARDHYDLFAYWGQGTLVTVSA VL: DILMTQSPSSMSVSLGDTVSITCHASQDISRNIGWLQQKPGKSFKGLIYHGTNLEDGVPSRFSGSGSGADYSLTISSLESEDFADYYCVQYAQFPRTFGGGTKLEIK | – | – | – | 26 to 50 | no binding (tested: 10 µg/mL) | binds | binds | 0 to 25 | – | – | –
mouse anti-human CD89-specific antibody 10E7 (antibody, mouse IgG1, V domains shown) VH: EVQLVESGGGLVQPGGSLKLSCAASGLTFSSYGMSWVRQTPDKRLELVATINGNGDITYYPDSVKGRFTISRDNAKNTLYLQMSSLKSEDTAMYYCARDYDYDYAMDYWGQGTSVTVSS VL: DIQMTQSTSSLSASLGDSVTISCRASQDIINYLNWYQQKPDGTVKLLIYYTSRLHSGVPSRFSGSGSGTEYSLTVSNLEKEDIATYFCQQGKTLPYTFGGGTKLEIK | – | no binding (tested: 10 µg/mL) | binds | – | – | – | – | – | no binding (tested: 10 µg/mL) | binds | binds
